Experimental data from patent publication US20260139017A1 (GENERAL HOSPITAL, published 2026).

Key:
[1] = target: Amyloid beta (Abeta42; beta-Amyloid (1-42)) (UniProt P05067 672-713); experiment: cell-based or functional assay
[2] = target: T1, Neuropilin 1 (NRP1), R&D 3870-N1-025 (UniProt O14786-2 22-644, biotinylated at a 1:2 molar ratio); experiment: BLI, NRP1 on biosensor
T1 construct: Biotinylated and immobilised on streptavidin biosensor tips; also called Neurophilin 1
T1 sequence (looked up): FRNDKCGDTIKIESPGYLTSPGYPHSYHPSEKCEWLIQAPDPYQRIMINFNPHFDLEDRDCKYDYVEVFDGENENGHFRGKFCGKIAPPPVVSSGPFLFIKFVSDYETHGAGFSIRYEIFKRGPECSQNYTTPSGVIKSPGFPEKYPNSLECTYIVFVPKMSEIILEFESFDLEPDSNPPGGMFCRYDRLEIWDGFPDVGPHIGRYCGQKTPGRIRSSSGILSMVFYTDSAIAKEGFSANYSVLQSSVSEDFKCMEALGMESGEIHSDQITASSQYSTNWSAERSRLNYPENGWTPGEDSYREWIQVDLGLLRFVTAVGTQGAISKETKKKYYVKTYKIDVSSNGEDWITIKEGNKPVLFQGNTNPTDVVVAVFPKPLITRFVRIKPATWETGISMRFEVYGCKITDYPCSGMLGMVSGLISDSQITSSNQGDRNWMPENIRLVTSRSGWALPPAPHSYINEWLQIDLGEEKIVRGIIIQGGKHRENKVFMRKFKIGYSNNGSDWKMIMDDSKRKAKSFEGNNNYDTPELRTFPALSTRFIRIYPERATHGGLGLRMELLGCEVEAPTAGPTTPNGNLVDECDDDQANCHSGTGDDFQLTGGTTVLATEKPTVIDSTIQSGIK
Method: (§1) Bio-layer interferometry (BLI) was used to assess NRP1-protein kinetics at 30° C. and 1000 rpm agitation using previously published methods. 1 mg/mL NRP1 (R&D 3870-N1-025) was biotinylated at a 1:2 molar ratio, desalted, and immobilized on the SA biosensor tip (Pall ForteBio) surface. This was followed by 1) 180 seconds baseline buffer diluent, 2) loading of the ligand (NRP1), 3) 180 seconds baseline buffer diluent, 4) 240 seconds association (analyte), and 5) 300 seconds disassociation in assay buffer. Assay buffer: SD Buffer (pH7.4 PBS, 0.05% tween20, 0.01% BSA).
(§2) The experimental data were fit with the 1:1 binding model and analyzed with global fitting using Octet Data Analysis software to calculate KD.

[3] = target: T1, Neuropilin 1 (NRP1), R&D 3870-N1-025; experiment: BLI (Octet), biotinylated NRP1 on SA biosensor, 1:1 global fit
Method: as §1, §2

[4] = target: T2, ApoEr2 (TP320903, OnGene) (UniProt Q14114 33-963, limits assumed); experiment: ELISA on coated receptor
T2 sequence (looked up): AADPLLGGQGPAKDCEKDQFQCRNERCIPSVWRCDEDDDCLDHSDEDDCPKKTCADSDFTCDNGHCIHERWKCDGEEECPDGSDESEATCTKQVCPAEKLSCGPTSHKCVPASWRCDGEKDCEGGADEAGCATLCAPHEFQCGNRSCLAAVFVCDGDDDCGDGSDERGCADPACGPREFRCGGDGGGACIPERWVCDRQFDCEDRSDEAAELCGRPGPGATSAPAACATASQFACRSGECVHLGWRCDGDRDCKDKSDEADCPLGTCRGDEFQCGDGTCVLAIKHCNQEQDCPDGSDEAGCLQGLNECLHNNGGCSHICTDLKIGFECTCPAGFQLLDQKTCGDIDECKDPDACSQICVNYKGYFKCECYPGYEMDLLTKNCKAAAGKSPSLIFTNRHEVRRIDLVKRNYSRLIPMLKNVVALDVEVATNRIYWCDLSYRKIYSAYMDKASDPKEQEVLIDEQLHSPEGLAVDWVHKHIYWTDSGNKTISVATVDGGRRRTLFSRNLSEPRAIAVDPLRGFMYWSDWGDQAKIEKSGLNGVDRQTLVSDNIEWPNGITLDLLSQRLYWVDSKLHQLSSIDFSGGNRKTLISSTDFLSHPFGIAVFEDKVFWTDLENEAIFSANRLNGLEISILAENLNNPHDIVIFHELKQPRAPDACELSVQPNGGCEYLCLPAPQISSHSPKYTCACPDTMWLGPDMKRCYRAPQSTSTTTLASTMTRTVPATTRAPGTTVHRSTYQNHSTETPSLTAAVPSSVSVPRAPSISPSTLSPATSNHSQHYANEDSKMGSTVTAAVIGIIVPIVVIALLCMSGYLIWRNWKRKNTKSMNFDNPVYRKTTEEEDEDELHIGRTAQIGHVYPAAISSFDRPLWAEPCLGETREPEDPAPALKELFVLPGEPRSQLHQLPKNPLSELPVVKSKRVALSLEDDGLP
Method: (§3) Enzyme-linked immunosorbent assay (ELISA) was used to quantify changes in binding of RELN variants (media-derived full-length or CTR-RELN) to either VLDLr or ApoEr2 following an optimized version of a previously published protocol (6). Briefly, ELISA strips (DY008, R&D Systems) were coated with one ng/μL (100 μL/well) of VLDLr (8444-VL, R&D) or ApoEr2 (TP320903, OnGene) receptors diluted in 25 mM Tris HCl, 140 mM NaCl, […], two mM CaCl₂), pH 7.4 (TBS-C buffer). After 18 h at four ° C. incubation, plates were blocked one h with three % BSA (22070008-6, Bioworld), 0.05% Tween-20 (Sigma Aldrich) TBS-C buffer. We assessed binding via incubation with 100 μL/well of serial dilutions of recombinant RELN protein (Ser1221-Gln2666, 8546-MR-050, R&D) or RELN variants in TBS-C buffer for one hour at room temperature. For detection, we used goat anti-mouse RELN primary antibody (LS-C793521-100, LS-Bio, 1:2,000, 100 μL/well) as primary antibody for one h at R.T. and (1:10,000; 100 μL/well, donkey anti-goat IgG H&L, HRP, ab6885, Abcam) as secondary antibody for 30 min. at R.T. Between each of the previous steps, plates were washed four times with TBS-C buffer (200 μL/well). Plates were washed three times prior to initiating the colorimetric reaction (DY008, R&D Systems). Stop solution (50 μL/well, DY008, R&D Systems) was added upon five min. incubation and the absorbance of the samples was measured at 450 nm using the Synergy 2 microplate reader (BioTek Instruments). Processing and analysis of the data was done using Gen5 1.11 software and GraphPad Prism, respectively.

VLDLr (8444-VL, R&D) = VLDLr (8444-VL, R&D) (UniProt P98155 28-797, limits assumed); experiment: ELISA on coated receptor
Method: as §3

Sequence of Amyloid beta (Abeta42; beta-Amyloid (1-42)) (P05067 672-713 limits assumed): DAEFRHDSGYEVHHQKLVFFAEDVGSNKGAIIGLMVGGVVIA

B1: Reelin CTR peptide H3447D short (peptide)
peptide: RKQNYMMNFSRQHGLRDFYNRRRR
[1]
  Thioflavin T fluorescence assay of Abeta aggregation, fold aggregation against H3447K short: ~3 fold

B2: Fc-fusion CTR-RELN WT (184I pfcn-huIgG2-C-termH3447WT) (Fc fusion)
chain: APLERKSSVECPPCPAPPVAGPSVFLFPPKPKDTLMISRTPEVTCVVVDVSHEDPEVQFNWYVDGVEVHNAKTKPREEQFNSTFRVVSVLTVVHQDWLNGKEYKCKVSNKGLPAPIEKTISKTKGQPREPQVYTLPPSREEMTKNQVSLTCLVKGFYPSDIAVEWESNGQPENNYKTTPPMLDSDGSFFLYSKLTVDKSRWQQGNVFSCSVMHEALHNHYTQKSLSLSPGARTSTRKQNYMMNFSRQHGLRHFYNRRRR
notes: also called Fc-WT
[2]
  fold less affinity than VEGF: 100 fold
[3]
  Kd: 610 nM
  koff: 0.00573 s⁻¹
  kon: 9400 M⁻¹ s⁻¹

B3: Fc-fusion CTR-RELN H3447R (184J pfcn-huIgG2-C-termH3447R) (Fc fusion)
chain: APLERKSSVECPPCPAPPVAGPSVFLFPPKPKDTLMISRTPEVTCVVVDVSHEDPEVQFNWYVDGVEVHNAKTKPREEQFNSTFRVVSVLTVVHQDWLNGKEYKCKVSNKGLPAPIEKTISKTKGQPREPQVYTLPPSREEMTKNQVSLTCLVKGFYPSDIAVEWESNGQPENNYKTTPPMLDSDGSFFLYSKLTVDKSRWQQGNVFSCSVMHEALHNHYTQKSLSLSPGARTSTRKQNYMMNFSRQHGLRRFYNRRRR
notes: also called Fc-H3447R
[2]
  fold affinity against wild-type CTR-RELN: 10 fold
[3]
  Kd: 79.3 nM
  koff: 0.00102 s⁻¹
  kon: 12900 M⁻¹ s⁻¹

B4: C-terminal region of RELN (CTR-RELN) WT recombinant peptide, long (peptide)
peptide: RKQNYMMNFSRQHGLRHFYNRRRRSLRRYP
notes: also called WT long; C-terminal RELN WT uncleaved
[4]
  binding result: no binding
VLDLr (8444-VL, R&D)
  binding result: no binding

B5: C-terminal region of RELN (CTR-RELN) H3447R recombinant peptide, long (peptide)
peptide: RKQNYMMNFSRQHGLRRFYNRRRRSLRRYP
notes: also called H3447R long; C-terminal RELN H3447R uncleaved
[4]
  binding result: no binding
VLDLr (8444-VL, R&D)
  binding result: no binding
